The values below come from paper PMC3752671 (Journal of structural biology, 2013).

By stoichiometry N is commonly meant the number of molecules, sites or subunits per partner or assembly.

Data set [1] has as its target T1, recombinant porcine amelogenin rP172 (porcine), P45561.
T1 chain: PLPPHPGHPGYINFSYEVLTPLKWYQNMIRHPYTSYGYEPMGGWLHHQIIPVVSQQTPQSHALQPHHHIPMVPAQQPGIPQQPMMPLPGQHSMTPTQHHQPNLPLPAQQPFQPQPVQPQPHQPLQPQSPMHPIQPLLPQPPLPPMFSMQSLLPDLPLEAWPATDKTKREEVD
Put plainly: cryo-EM structure. The following applies: remark: other sources report otherwise.

The data set “cryo-EM structure” concerns the molecule itself. Put plainly: cryo-EM structure.

B1: recombinant porcine amelogenin rP172, P45561 18-189 (natural protein)
chain: PLPPHPGHPGYINFSYEVLTPLKWYQNMIRHPYTSYGYEPMGGWLHHQIIPVVSQQTPQSHALQPHHHIPMVPAQQPGIPQQPMMPLPGQHSMTPTQHHQPNLPLPAQQPFQPQPVQPQPHQPLQPQSPMHPIQPLLPQPPLPPMFSMQSLLPDLPLEAWPATDKTKREEVD
Consider B1, for which, in data set [1], the stoichiometry N was found to be 12.

B2: full-length native porcine amelogenin P173 (natural protein, UniProt P45561 17-189, looked up)
chain: MPLPPHPGHPGYINFSYEVLTPLKWYQNMIRHPYTSYGYEPMGGWLHHQIIPVVSQQTPQSHALQPHHHIPMVPAQQPGIPQQPMMPLPGQHSMTPTQHHQPNLPLPAQQPFQPQPVQPQPHQPLQPQSPMHPIQPLLPQPPLPPMFSMQSLLPDLPLEAWPATDKTKREEVD
modifications: phosphoserine at 16 (S-16); degree of phosphorylation ~85% by mass spectrometry
Take B2: in the data set “cryo-EM structure”, the “stoichiometry N” value amounted to 12.
